Laboratory results published in paper PMC3965549, “Evidence for LINC1-SUN Associations at the Plant Nuclear Periphery” (PLoS ONE, 2014).
One block for each binder: values may come before it.

Molecular target: T1, AtLINC1-YFP (Arabidopsis, UniProt F4HRT5 1-1132)
T1 construct: Little Nuclei 1 (LINC1) of Arabidopsis; also called Little Nuclei 1
T1 sequence (looked up): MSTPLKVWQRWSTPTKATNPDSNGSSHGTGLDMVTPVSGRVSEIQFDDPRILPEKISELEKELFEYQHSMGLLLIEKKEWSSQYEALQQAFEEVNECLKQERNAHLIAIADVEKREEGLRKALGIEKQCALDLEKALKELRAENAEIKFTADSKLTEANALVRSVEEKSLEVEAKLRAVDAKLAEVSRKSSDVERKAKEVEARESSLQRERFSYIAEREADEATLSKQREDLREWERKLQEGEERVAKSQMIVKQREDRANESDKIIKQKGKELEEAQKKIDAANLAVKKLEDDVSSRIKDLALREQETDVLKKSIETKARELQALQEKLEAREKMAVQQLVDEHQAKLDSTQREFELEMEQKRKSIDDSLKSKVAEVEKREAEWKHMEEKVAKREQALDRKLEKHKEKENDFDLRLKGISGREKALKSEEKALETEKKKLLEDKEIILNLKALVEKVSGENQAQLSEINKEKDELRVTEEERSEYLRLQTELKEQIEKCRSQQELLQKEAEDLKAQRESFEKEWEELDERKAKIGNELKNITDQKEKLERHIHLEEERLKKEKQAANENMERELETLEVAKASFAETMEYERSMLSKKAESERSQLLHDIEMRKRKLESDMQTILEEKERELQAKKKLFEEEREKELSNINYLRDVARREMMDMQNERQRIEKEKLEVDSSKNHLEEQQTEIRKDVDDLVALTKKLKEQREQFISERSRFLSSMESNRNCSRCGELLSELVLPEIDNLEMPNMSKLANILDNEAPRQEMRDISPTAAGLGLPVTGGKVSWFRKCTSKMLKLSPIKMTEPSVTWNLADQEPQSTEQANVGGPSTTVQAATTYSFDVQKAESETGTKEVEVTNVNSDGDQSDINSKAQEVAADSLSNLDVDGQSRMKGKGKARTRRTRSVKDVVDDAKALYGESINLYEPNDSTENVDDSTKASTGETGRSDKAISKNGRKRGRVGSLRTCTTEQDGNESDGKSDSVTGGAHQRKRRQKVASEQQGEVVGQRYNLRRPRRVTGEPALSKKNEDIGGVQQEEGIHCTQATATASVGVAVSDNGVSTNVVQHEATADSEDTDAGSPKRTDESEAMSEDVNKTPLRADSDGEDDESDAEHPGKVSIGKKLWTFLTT
Assay: FRET or BRET; acceptor photobleaching FRET (apFRET) in N. benthamiana leaf cells 3 days after infiltration; CFP donor on the SUN constructs, YFP acceptor on AtLINC1; YFP bleached in a constant ROI; pre-bleach fluorescence as internal negative control; about 35 NE per sample
Details: partners not purified

- FRET efficiency (EF): 1.85%
B1: AtSUN1-CFP (natural protein, Arabidopsis, UniProt Q9FF75 1-471, looked up)
chain: MSASTVSITANTAAATRRTPILAGEKKSNFDYPQSESLANGGVGEAGGTSRDLSRGEATLDRSQGQDLGPVTRRSVSAATGTNTTATQRRTRKVATPKSEKARWKTVVRIFAKQLGALLIIVGLIQLTRKMILKASSPSSPISSYETEMAFSGLESRIAEVDGLVKATTNSMQVQVELLDKKMEREAKVLRQEIERKASAFQSELKKIESRTESLEKSVDEVNAKPWVTKDELERIYEELKKGNVDDSAFSEISIDELRAYARDIMEKEIEKHAADGLGRVDYALASGGAFVMEHSDPYLVGKGSSWFATTMRRAHTNAVKMLSPSFGEPGQCFPLKGSEGYVQIRLRGPIIPEAFTLEHVAKSVAYDRSSAPKDCRVSGSLQGPESSAETENMQLLTEFTYDLDRSNAQTFNILESSSSGLIDTVRLDFTSNHGSDSHTCIYRFRVHGRAPDPVPVVGTNLDQDSSPESE
notes: AtSUN1, Sad1/UNC84 domain protein 1 of Arabidopsis; also called full length AtSUN1; source: Nicotiana benthamiana leaves, transient expression by A. tumefaciens GV3101 infiltration (pK7CWG2), in living cells; not shown: CFP, C-terminal, kept

- FRET efficiency (EF): 1.9%
B2: AtSUN2-CFP (natural protein, Arabidopsis, UniProt Q9SG79 1-455, looked up)
chain: MSASTVSITASPRTIRRTPVLSGEKKSNFDFPPSESHANAAIGESSAGTNKDLIRAEAAGERSNTYDVGPVTRKSGSTATGTNTTTTQRRTRKSQGNKIDRGKWKTVVRVFAKQFGALLLLVGLIQLIRKLTLKDSSLSSSNFPIETEMVLSELESRISAVDGLVKTTTKMMQVQVEFLDKKMDSESRALRQTIDSTSSVLHSELKKVESKTERLQVSVDELNAKPLVSREELERVYEELKKGKVGDSDVNIDKLRAYARDIVEKEIGKHVADGLGRVDYALASGGAFVMGHSDPFLVGNGRNWFGTSRRRVHSKAVKMLTPSFGEPGQCFPLKGSNGYVLVRLRAPIIPEAVTLEHVSKAVAYDRSSAPKDCRVSGWLGDIDMETETMPLLTEFSYDLDRSNAQTFDIADSAHSGLVNTVRLDFNSNHGSSSHTCIYRFRVHGRELDSVSVAHA
notes: AtSUN2, Sad1/UNC84 domain protein 2 of Arabidopsis; also called full length AtSUN2; source: Nicotiana benthamiana leaves, transient expression by A. tumefaciens GV3101 infiltration (pK7CWG2), in living cells; not shown: CFP, C-terminal, kept

- FRET efficiency (EF): 1.29%
B3: AtSUN2^1–106-CFP (domain or fragment, Arabidopsis, UniProt Q9SG79 1-106, looked up)
chain: MSASTVSITASPRTIRRTPVLSGEKKSNFDFPPSESHANAAIGESSAGTNKDLIRAEAAGERSNTYDVGPVTRKSGSTATGTNTTTTQRRTRKSQGNKIDRGKWKT
notes: N-terminus of AtSUN2 of Arabidopsis: the first 318 bp (106 aa) of the CDS; also called SUN2 N-terminus; AtSUN2 N-terminus; source: Nicotiana benthamiana leaves, transient expression by A. tumefaciens GV3101 infiltration (pK7CWG2), in living cells; not shown: CFP, C-terminal, kept
